Here are results for one variant from IntAct's records for PubMed 22274616.

The chains are these.
B1: Protein PML (Homo sapiens), P29590 (parent)
chain: MEPAPARSPRPQQDPARPQEPTMPPPETPSEGRQPSPSPSPTERAPASEEEFQFLRCQQCQAEAKCPKLLPCLHTLCSGCLEASGMQCPICQAPWPLGADTPALDNVFFESLQRRLSVYRQIVDAQAVCTRCKESADFWCFECEQLLCAKCFEAHQWFLKHEARPLAELRNQSVREFLDGTRKTNNIFCSNPNHRTPTLTSIYCRGCSKPLCCSCALLDSSHSELKCDISAEIQQRQEELDAMTQALQEQDSAFGAVHAQMHAAVGQLGRARAETEELIRERVRQVVAHVRAQERELLEAVDARYQRDYEEMASRLGRLDAVLQRIRTGSALVQRMKCYASDQEVLDMHGFLRQALCRLRQEEPQSLQAAVRTDGFDEFKVRLQDLSSCITQGKDAAVSKKASPEAASTPRDPIDVDLPEEAERVKAQVQALGLAEAQPMAVVQSVPGAHPVPVYAFSIKGPSYGEDVSNTTTAQKRKCSQTQCPRKVIKMESEEGKEARLARSSPEQPRPSTSKAVSPPHLDGPPSPRSPVIGSEVFLPNSNHVASGAGEAEERVVVISSSEDSDAENSSSRELDDSSSESSDLQLEGPSTLRVLDENLADPQAEDRPLVFFDLKIDNETQKISQLAAVNRESKFRVVIQPEAFFSIYSKAVSLEVGLQHFLSFLSSMRRPILACYKLWGPGLPNFFRALEDINRLWEFQEAISGFLAALPLIRERVPGASSFKLKNLAQTYLARNMSERSAMAAVLAMRDLCRLLEVSPGPQLAQHVYPFSSLQCFASLQPLVQAAVLPRAEARLLALHNVSFMELLSAHRRDRQGGLKKYSRYLSLQTTTLPPAQPAFNLQALGTYFEGLLEGPALARAEGVSTPLAGRGLAERASQQS

Variants of B1 are the subject of this assay. The conditions noted are these: with per2_mouse Per2, O54943.
Chain of per2_mouse Per2, O54943 (O54943 whole entry): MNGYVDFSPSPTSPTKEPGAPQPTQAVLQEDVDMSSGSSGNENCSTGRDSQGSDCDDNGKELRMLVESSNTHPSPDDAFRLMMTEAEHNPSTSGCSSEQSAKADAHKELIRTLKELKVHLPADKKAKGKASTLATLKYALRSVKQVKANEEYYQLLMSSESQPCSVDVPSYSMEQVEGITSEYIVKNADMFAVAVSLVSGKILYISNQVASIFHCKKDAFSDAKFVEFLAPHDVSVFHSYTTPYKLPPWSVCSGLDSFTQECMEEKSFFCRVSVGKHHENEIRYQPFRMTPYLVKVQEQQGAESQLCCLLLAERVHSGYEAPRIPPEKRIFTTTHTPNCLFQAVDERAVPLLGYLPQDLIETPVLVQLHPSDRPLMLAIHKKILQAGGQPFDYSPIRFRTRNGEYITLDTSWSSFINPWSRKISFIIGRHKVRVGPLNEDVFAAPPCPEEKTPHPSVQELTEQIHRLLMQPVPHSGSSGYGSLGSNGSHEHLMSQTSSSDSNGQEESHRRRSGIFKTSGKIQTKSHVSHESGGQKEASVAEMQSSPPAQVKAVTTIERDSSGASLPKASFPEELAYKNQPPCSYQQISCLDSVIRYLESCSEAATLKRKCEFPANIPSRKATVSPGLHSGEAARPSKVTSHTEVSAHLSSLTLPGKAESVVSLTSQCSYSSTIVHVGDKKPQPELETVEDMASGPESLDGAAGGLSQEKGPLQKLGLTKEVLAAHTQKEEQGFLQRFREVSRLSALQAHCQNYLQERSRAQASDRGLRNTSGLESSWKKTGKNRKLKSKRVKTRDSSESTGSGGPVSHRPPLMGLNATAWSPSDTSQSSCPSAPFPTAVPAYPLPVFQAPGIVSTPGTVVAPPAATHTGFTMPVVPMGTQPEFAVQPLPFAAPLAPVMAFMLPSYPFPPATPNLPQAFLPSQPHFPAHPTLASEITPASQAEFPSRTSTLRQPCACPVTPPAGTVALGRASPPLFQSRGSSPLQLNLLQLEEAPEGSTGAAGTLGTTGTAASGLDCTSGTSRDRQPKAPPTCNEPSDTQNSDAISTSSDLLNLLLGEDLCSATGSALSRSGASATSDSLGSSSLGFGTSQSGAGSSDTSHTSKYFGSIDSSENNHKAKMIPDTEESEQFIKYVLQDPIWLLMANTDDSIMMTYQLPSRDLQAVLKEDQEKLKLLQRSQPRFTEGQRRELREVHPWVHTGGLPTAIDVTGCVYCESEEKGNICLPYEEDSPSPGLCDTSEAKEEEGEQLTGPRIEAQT
Consider K487R, for which the “effect of a mutation on the interaction” value is “decreasing interaction strength”.
